# Results: patent publication US8809529B2, “Imidazo[1,2-α]pyrazine derivatives” (Promega Corporation, priority 2010, dated 2014)
# Assays:
# [1] = Brightness and relative specificity of 9B8 and 9B8 opt+K33N variants in E. coli lysates; format: biochemical; conditions: for Fold over coelenterazine / Fold over 9B8: bacterial lysates; for Fold over coelenterazine: PBI-3939 luminescence divided by native coelenterazine luminescence; for Fold over 9B8: luminescence normalized to 9B8 opt
# Protocol: Additional variants with improved relative specificity to novel PBI-3939 were generated as described previously by saturating amino acid positions 18, 68, 72, 75, and 90 in variant 9B8. […] Relative specificity was determined from the ratio of the luminescence of the variant with PBI-3939 to the luminescence of the variant with native coelenterazine, normalized to the ratio of corresponding luminescence of 9B8. Table 8 lists 9B8 variants (“Variant”) with at least 1.1× fold-increase in relative specificity for PBI-3939. […] 9B8 variants with amino acid substitutions K, D, F, G, Y, W, and H at position 18 had the highest fold improvement in relative specificity.
# A new OgLuc library was created using 9B8opt+K33N as a starting template. The random library was created using DIVERSIFY® PCR Random Mutagenesis Kit (ClonTech; Catalog #630703). Condition 5 (as listed in the user manual) was used to generate additional variants, and the average mutation rate was calculated to be 2.6 mutations per gene by compiling sequence data from 83 randomly selected clones. This PCR library was cloned into the pF4Ag-based, non-fusion vector background described previously and the sandwich background, i.e., Id-OgLuc-HT7 (described in Example 45). Variants in the pF4Ag-base non-fusion vector background are designated with (NF). Variants in the sandwich vector background are designated with (F). In order to clone the PCR product into both vectors, an amino acid, i.e., a glycine, was appended to the variant sequence in pF4Ag, generating a new position 170 in the OgLuc variant (“170G”). The 170G is present in the sandwich construct, but in this case is considered part of the linker between OgLuc and HT7. For each library, 4,400 E. coli clones were assayed as described previously with the following exceptions. […] The assay buffer contained 100 mM MES pH 6.0 instead of HEPES, and 35 mM thiourea. The assay volumes were as follows: 10 μL cells, 40 μL lysis buffer, and 50 μL assay buffer.
# (§1) Based on the above data, further combination variants were designed and generated (see Table 10) in the context of the pF4Ag-based non-fusion vector background without the 170G. The variants were analyzed in E. coli, HEK293 and NIH3T3 cells as described above and compared to 9B8 opt+K33N. The variants were also examined for luminescence with native coelenterazine.
# E. coli lysates containing the variants were prepared and analyzed as described previously. Luminescence generated from the lysates was measured using the novel PBI-3939 and native coelenterazine as substrates. The luminescence of the variants was normalized to the luminescence generated by 9B8 opt (Table 12). The relative specificity of the variants for PBI-3939 and native coelenterazine was calculated by dividing the luminescence of the variants using PBI-3939 as a substrate with the luminescence of the variants using native coelenterazine as a substrate (Table 12).
# [2] = Stability of secreted OgLuc variants in saved media; format: physicochemical; conditions: secreted variant in media
# Protocol: To determine if the secretion signal sequence of OgLuc facilitates its secretion, the OgLuc variants 9B8, V2 and L27V were cloned into pF4Ag containing an N-terminal OgLuc secretion signal sequence. The variants were also cloned into vectors without the secretion signal sequence. CHO or HeLa cells were then plates at 100,000 cells/well in 1 mL F12 media with 10% FBS and 1× sodium pyruvate (CHO cells) or DMEM with 10% FBS and 1× sodium pyruvate (HeLa cells) into 12-well plates and incubated overnight at 37° C., 5% CO2.
# After the overnight incubation, the cells were transfected with 1 μg plasmid DNA containing 9B8, V2, or L27V with or without the secretion signal sequence using the TRANSIT®-LT1 transfection reagent (Minis Bio) and OPTI-MEM® media (Invitrogen). The cells were again incubated overnight at 37° C., 5% CO2.
# After the second overnight incubation, the media was removed and saved for analysis. […] To 10 μL of cell lysate or saved media from each sample, 50 μL assay buffer with 40 μM FBI-3939 was added, and luminescence measured as described above.
# To determine the stability of the secreted variants, 150 μL aliquots of the saved media from each sample was placed at 37° C. or 50° C. The aliquots were then removed at different time points ([…]), frozen on thy ice, and kept at −20° C. until assayed. To assay for stability, the media aliquots were thawed to room temperature, and 10 μL of each aliquot was mixed with assay buffer with PBI-3939 (pH 6.0) as described above. Luminescence was measured as above, and the half-life (t50) determined (Table 34).
# [3] = Luminescence of OgLuc variants expressed in NIH3T3 cells; format: cell-based; conditions: for Increase in Luminescence: NIH3T3: normalized to 9B8 opt
# Protocol: The PCR library in the pF4Ag-based non-fusion background was screened for additional variants with increased luminescence compared to 9B8 opt+K33N+170G (SEQ ID NOs: 68 and 69). Selected variants were then assayed in HEK293 and NIH3T3 cells. For each cell type, 15,000 cells were plated and grown overnight at 37° C. The next day, the cells were transfected as described in Example 25 with 10 ng pGL4.13 (Promega Corp.) as a transfection control and 100 ng of the OgLuc test DNA. The media was removed, and the cells were lysed with 100 μL of lysis buffer as described in Example 25 except the lysis buffer contained 100 mM MES pH 6.0 instead of HEPES, and luminescence measured using a GLOMAX® Luminometer.
# as §1
# The brightness of the variants expressed in HEK293 and NIH3T3 cells was measured as described previously. The luminescence of the variants was normalized to the luminescence generated by 9B8 opt (Table 27).
# The variants 9B8 opt+K33N+T39T+K43R+Y68D (“V2”; SEQ ID NOs: 92 and 93), 9B8 opt+K33N+L27V+K43R+Y68D (SEQ ID NOs: 339 and 340), 9B8 opt+K33N+L27V+T39T+K43R+S66N (SEQ ID NOs: 341 and 342), and 9B8 opt+K33N+L27V+T39T+K43R+Y68D (“L27V”; SEQ ID NOs: 88 and 89) were subcloned into the Id-OgLuc-HT7 sandwich background as described above and assayed in HEK293 and NIH3T3 cells as described above. The luminescence generated by the sandwiched variants were compared to the luminescence generated by the […] sandwich (SEQ ID NOs: 59 and 60) (Table 38). The L27V sandwich (SEQ ID NOs: 90 and 91) and V2 sandwich (SEQ ID NOs: 94 and 95) had at least 1.3× fold-increase in luminescence in HEK293 and NIH3T3 cells.
# The sandwich and non-sandwich versions of the variants V2, 9B8 opt+K33N+L27V+K43R+Y68D, 9B8 opt+K33N+L27V+T39T+K43R+S66N, and L27V were assayed in HEK293 and NIH3T3 cells as described in Example 37. The luminescence generated by the non-sandwiched variants was compared to the luminescence generated by the sandwiched variants (Table 39).
# [4] = tested on: HEK293 cells; assay: Brightness on a per mole basis in HEK293 cells (HT7 fusions); format: cell-based, human
# [5] = relative specificity for PBI-3939
Molecule,Fold over coelenterazine [1],Fold over 9B8 [1],"Fold over 9B8 opt + K33N: E. coli ([1]; luminescence, PBI-3939)","Fold over Native Coelenterazine: E. coli [1, 5]",½ life 37° C. [2] [days],½ life 50° C. [2] [h],Fold-Decrease in Luminescence in the Presence of Sandwich Background: NIH 3T3 cells [3],"Fold over 9B8 opt + K33N: NIH3T3 ([3]; luminescence, PBI-3939)",Increase in Luminescence: NIH3T3 [3],"Fold over Native Coelenterazine: NIH3T3 [3, 5]",brightness relative to Luc2 [4],brightness relative to hRL [4] [fold]
"L27V: 9B8 opt+K33N variant with L27V, T39T, K43R, Y68D (protein) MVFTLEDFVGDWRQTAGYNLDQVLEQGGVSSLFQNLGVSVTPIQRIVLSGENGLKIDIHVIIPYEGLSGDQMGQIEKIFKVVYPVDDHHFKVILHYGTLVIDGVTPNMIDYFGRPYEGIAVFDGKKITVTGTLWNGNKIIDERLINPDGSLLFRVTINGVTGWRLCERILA",110,1.8,0.9,85.2,17,11,18,0.7,1.6,85,–,–
"9B8: IV variant with Q18L, F68Y, L72Q, M75K; in Tables 12, 22, 23, 26, 27 “9B8” stands for 9B8 opt (protein) MVFTLEDFVGDWRQTAGYNLDQVLEQGGLSSLFQKLGVSVTPIQKIVLSGENGLKIDIHVIIPYEGLSGYQMGQIEKIFKVVYPVDDHHFKVILHYGTLVIDGVTPNMIDYFGRPYEGIAVFDGKKITVTGTLWNGNKIIDERLINPDGSLLFRVTINGVTGWRLCERILA",7,1.0,–,–,8,3,–,–,1.0,–,approximately 15 fold,> 100
